According to IntAct's records for PubMed 20682316:

B1: Retinoic acid receptor RXR-alpha (Homo sapiens), P19793 (parent)
chain: MDTKHFLPLDFSTQVNSSLTSPTGRGSMAAPSLHPSLGPGIGSPGQLHSPISTLSSPINGMGPPFSVISSPMGPHSMSVPTTPTLGFSTGSPQLSSPMNPVSSSEDIKPPLGLNGVLKVPAHPSGNMASFTKHICAICGDRSSGKHYGVYSCEGCKGFFKRTVRKDLTYTCRDNKDCLIDKRQRNRCQYCRYQKCLAMGMKREAVQEERQRGKDRNENEVESTSSANEDMPVERILEAELAVEPKTETYVEANMGLNPSSPNDPVTNICQAADKQLFTLVEWAKRIPHFSELPLDDQVILLRAGWNELLIASFSHRSIAVKDGILLATGLHVHRNSAHSAGVGAIFDRVLTELVSKMRDMQMDKTELGCLRAIVLFNPDSKGLSNPAEVEALREKVYASLEAYCKHKYPEQPGRFAKLLLRLPALRSIGLKCLEHLFFFKLIGDTPIDTFLMEMLEAPHQMT
B2: Oxysterols receptor LXR-alpha (Homo sapiens), Q13133 (parent)
chain: MSLWLGAPVPDIPPDSAVELWKPGAQDASSQAQGGSSCILREEARMPHSAGGTAGVGLEAAEPTALLTRAEPPSEPTEIRPQKRKKGPAPKMLGNELCSVCGDKASGFHYNVLSCEGCKGFFRRSVIKGAHYICHSGGHCPMDTYMRRKCQECRLRKCRQAGMREECVLSEEQIRLKKLKRQEEEQAHATSLPPRASSPPQILPQLSPEQLGMIEKLVAAQQQCNRRSFSDRLRVTPWPMAPDPHSREARQQRFAHFTELAIVSVQEIVDFAKQLPGFLQLSREDQIALLKTSAIEVMLLETSRRYNPGSESITFLKDFSYNREDFAKAGLQVEFINPIFEFSRAMNELQLNDAEFALLIAISIFSADRPNVQDQLQVERLQHTYVEALHAYVSIHHPHDRLMFPRMLMKLVSLRTLSSVHSEQVFALRLQDKKLPPLLSEIWDVHE

Variants of: B1
Conditions: with ncoa1_human NCOA1, Q15788
Target sequence in this assay (Q15788 whole entry): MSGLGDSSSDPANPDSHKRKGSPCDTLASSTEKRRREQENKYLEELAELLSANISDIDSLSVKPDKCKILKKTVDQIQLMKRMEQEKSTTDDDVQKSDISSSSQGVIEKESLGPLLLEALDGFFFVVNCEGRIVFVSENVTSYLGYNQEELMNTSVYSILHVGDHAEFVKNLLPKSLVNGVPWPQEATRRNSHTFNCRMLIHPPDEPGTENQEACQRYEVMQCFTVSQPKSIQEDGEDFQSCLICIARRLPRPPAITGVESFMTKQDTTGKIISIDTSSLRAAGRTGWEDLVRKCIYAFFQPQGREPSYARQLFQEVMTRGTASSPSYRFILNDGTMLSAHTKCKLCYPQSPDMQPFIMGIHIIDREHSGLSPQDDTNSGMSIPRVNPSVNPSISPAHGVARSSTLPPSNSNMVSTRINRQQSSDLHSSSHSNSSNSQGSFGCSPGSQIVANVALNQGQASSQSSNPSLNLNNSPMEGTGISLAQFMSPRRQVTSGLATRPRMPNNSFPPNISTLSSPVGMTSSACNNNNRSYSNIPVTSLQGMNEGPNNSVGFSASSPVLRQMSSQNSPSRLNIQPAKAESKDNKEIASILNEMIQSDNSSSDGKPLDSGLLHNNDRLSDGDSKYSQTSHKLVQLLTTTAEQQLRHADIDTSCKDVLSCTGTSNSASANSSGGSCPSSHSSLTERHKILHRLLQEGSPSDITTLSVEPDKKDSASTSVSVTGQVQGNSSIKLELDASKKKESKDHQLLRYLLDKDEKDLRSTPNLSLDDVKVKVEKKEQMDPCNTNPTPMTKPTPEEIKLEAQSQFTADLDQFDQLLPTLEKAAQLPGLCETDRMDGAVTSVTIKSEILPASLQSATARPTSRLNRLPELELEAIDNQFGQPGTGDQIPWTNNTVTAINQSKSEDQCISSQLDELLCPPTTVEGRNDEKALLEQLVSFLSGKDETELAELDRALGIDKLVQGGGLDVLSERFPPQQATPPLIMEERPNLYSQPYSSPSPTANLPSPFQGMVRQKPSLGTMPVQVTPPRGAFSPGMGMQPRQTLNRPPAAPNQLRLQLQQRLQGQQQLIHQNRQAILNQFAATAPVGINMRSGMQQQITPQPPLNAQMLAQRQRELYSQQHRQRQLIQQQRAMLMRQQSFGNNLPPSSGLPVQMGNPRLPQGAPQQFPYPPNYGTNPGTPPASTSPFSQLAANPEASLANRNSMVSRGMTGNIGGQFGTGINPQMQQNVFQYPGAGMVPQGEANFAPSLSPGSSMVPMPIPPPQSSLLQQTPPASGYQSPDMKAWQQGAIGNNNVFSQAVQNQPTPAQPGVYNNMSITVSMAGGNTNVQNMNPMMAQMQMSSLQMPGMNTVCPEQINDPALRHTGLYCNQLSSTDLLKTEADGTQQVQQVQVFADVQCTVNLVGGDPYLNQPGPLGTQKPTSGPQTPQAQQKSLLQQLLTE

Variant	effect of a mutation on the interaction
K284A	disrupting interaction

Variants of: B2
Conditions: with ncoa1_human NCOA1, Q15788
Target sequence in this assay (Q15788 whole entry): as above

Variant	effect of a mutation on the interaction
K273A	disrupting interaction

Variants of: B2
Conditions: with ncoa1_human NCOA1, Q15788
Remark: another data set of the same source
Target sequence in this assay (Q15788 whole entry): as above

Variant	effect of a mutation on the interaction
I442A	disrupting interaction
E441A	disrupting interaction
